Square brackets hold non-standard residues; d marks the D form. Ends that are not written are not given here.
Molecular target: T1, Aβ plaques (Homo sapiens, UniProt P05067)
T1 construct: have an increased Aβ 1-42 expression and plaque formation; from tissue; host or cells: frontal brain slices of transgenic Tg2576 mice aged 10 to 11 months
Test: Ex vivo histological staining of plaques in frontal brain slices of transgenic Tg2576 mice with FITC-labelled D-peptides (fluorescence microscopy, Congo red control)
Assay type: binding
Details: frontal brain slices (cortex) of Tg2576 mice aged 10 to 11 months; for region of the plaques stained (more intensely): FITC-labelled peptide
Description: The binding properties of the available peptides to Aβ plaques were investigated. For staining frontal brain slices, use was made of preparations of transgenic Tg2576 mice aged from 10 to 11 months, which due to the human APP gene bearing the Swedish mutation have an increased Aβ 1-42 expression and plaque formation. In these mice, it was also possible to detect AβpE3-x as a plaque constituent.
For the tests, the peptides were synthetically produced and labelled by a commercial supplier, A test was then carried out, ex vivo, to determine the regions of the plaques to which binding had mainly taken place. It must be assumed here that Aβ plaques consist of different Aβ species, such as, for example, Aβ1-40, 1-42 and AβpE3-x.
All the peptides are combined with fluorescein isothiocyanate (FITC) for detection by means of fluorescence microscopy.
As a further control, the same tests were carried out after Congo red staining, which served to verify the plaque structures (bottom image in each case). It must be assumed that the plaques are composed of different Aβ isoforms (Aβ 1-40, 1-42, AβpE3-x). Slices from wild-type animals without plaque formation were also treated. In these tests, no Congo red or fluorescein fluorescence could be detected (data not shown).

T1 sequence (P05067 672-713 limits assumed): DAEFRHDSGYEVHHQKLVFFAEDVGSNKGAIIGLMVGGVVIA

Sequence	region of the plaques stained (more intensely)	type of plaques stained by the peptide
AGERLKFIDEHV ([dA]G[dE][dR][dL][dK][dF][dI][dD][dE][dH][dV]) [D6]	ring-shaped structures around the inner core of the plaques were stained more intensely	only plaques having a relatively dense structure, consisting of Aβ fibrils, were stained, but not small and diffuse plaques
HTRFEYYVYHMS ([dH][dT][dR][dF][dE][dY][dY][dV][dY][dH][dM][dS]) [D7]	at the inner core of the plaques	stained only dense structures
KMEHPNHPPPQR ([dK][dM][dE][dH][dP][dN][dH][dP][dP][dP][dQ][dR]) [D4, dodecameric D-peptide selected by mirror image phage display against aggregation-nucleus-free AβpE3-x]	ring-shaped structures around the inner core of the plaques were stained more intensely	only plaques having a relatively dense structure, consisting of Aβ fibrils, were stained, but not small and diffuse plaques
NGAPNKIPRDRE ([dN]G[dA][dP][dN][dK][dI][dP][dR][dD][dR][dE]) [D5, dodecameric D-peptide selected by mirror image phage display against aggregation-nucleus-free AβpE3-x]	ring-shaped structures around the inner core of the plaques were stained more intensely	only plaques having a relatively dense structure, consisting of Aβ fibrils, were stained, but not small and diffuse plaques

— US9611296B2, “Peptides that bind to amino-truncated amyloid-beta-peptide and use of said peptides” (FORSCHUNGSZENTRUM JUELICH GMBH, priority 2012, dated 2017)
